Laboratory results reported in US20240391991A1, “MODULATION OF WNT SIGNALLING IN PULMONARY DISORDERS” (Surrozen Operating, Inc., priority 2021, published 2024).
“Also recorded” adds a separate entry of the source.

What was measured:
human AT2 cell organoid [1] = test: Human AT2 cell organoid growth, CellTiter Glo assay; assay type: cell-based; conditions: for self-renewal and expansion of human AT2 cells: summary of organoid results; for effectiveness on human AT2 organoid expansion versus Chir99021: 10 nM concentration; for effectiveness on human AT2 organoid expansion versus Chir99021 / human AT2 organoid culture outgrowth/viability (CellTiter Glo): in the absence of RSPO, FIG. 8; for human AT2 organoid culture outgrowth/viability (CellTiter Glo): SWAP alone
Method: For ex vivo studies, 3D organoid cultures (see, e.g., Zacharias, W. et al. (2018) Nature 555:251-257 and Barkauskas et al. (2017) Development 144:986-997) were constructed by combining primary human lung fibroblasts from healthy, pulmonary fibrosis, or COPD patients with alveolar epithelial cells (AT2 and AEP cells) from patients. Organoids were cultured in SAGM medium with growth factor free Matrigel. The Wnt antagonist and agonist were added in a sequential or concurrent manner to determine the effect on the fibroblast/myofibroblast proliferation, matrix production, alveolar epithelial cell proliferation and AT1/AT2 cell fate trans-differentiation. Alveolar organoids can also be cultured directly from human distal lung cells including purified AT2 cells (Kobayashi et al., (2020) supra).
(§1) In all of the AT2 cell organoid experiments, the Wnt signaling inhibitor, C59, was used to prevent endogenous secretion of Wnt ligands. […] AT2 cell organoid growth was assessed with the CellTiter Glo assay.

[2] = tested on: mouse AT2 organoid cultures; test: Mouse AT2 cell organoid expansion, CellTiter-Glo assay; assay type: cell-based; conditions: SWAP in combination with RSPO2; C59 present; FIG. 9
Method: as §1

human AT2 cell organoid [3] = test: Human AT2 organoid size (diameter, microscopy); assay type: cell-based; conditions: in the absence of RSPO; for human AT2 cell organoid growth as organoid size (diameter): C59 present, FIG. 6; for numbers of organoids and organoid size by microscopy: FIG. 8
[4] = tested on: acute bleomycin mouse model; test: Bleomycin-induced acute lung injury (fibrosis) mouse model; assay type: in vivo; conditions: agent alone
Source text: The acute lung injury (single bleomycin treatment; FIG. 1) and chronic intermittent/low dose bleomycin mouse models (FIG. 2) were used to determine the therapeutic effects of Wnt antagonist and agonist (administered concurrently or sequentially or individually) in combination with or without anti-fibrotic drugs (e.g., pirfenidone and nintedanib) to assess effects on anti-fibrotic and improved respiratory functions (see, e.g., Degryse, A. et al. (2010) Am J Physiol Lung Cell Mol Physiol. 299:442-52). Improvement of fibrosis was observed upon treatment with a WNT agonist, SWAP5 (see, e.g., FIG. 7, FIG. 10). Specifically, bleomycin was administered intratracheally to the mice at day 0, and animals were treated twice weekly with an agonist approach—combination of SWAP5 (FZD1,2,5,7,8 multi-FZD-specific SWAP) and RSPO2 (combo)—for two weeks starting at day 7 until termination at day 21. […] Improvement of fibrosis was also observed upon treatment with a Wnt agonist or the Wnt signaling enhancer RSPO2 alone (FIG. 10).

B1: SWAP1: FZD-1,2,5,7,8-specific Wnt agonist; anti-FZD antibody with LRP6 binder; heavy/light chains SEQ ID NO: 3 and 4 (antibody)
heavy: EVQLVESGGGLVQPGGSLRLSCAASGFTFTSYYISWVRQAPGKGLEWVAEISPYSGSTYYADSVKGRFTISADTSKNTAYLQMNSLRAEDTAVYYCALRARPPIRLHPRGSVMDYWGQGTLVTVSSGGGGSGGGGSGGGGSEVQLVESGGGLVQPGGSLRLSCAASGFTFSHYTLSWVRQAPGKGLEWVSVISGDGSYTYYADSVKGRFTISSDNSKNTLYLQMNSLRAEDTAVYYCARNFIKYVFANWGQGTLVTVSSASTKGPSVFPLAPSSKSTSGGTAALGCLVKDYFPEPVTVSWNSGALTSGVHTFPAVLQSSGLYSLSSVVTVPSSSLGTQTYICNVNHKPSNTKVDKKVEPKSCDKTHTCPPCPAPEAAGGPSVFLFPPKPKDTLMISRTPEVTCVVVDVSHEDPEVKFNWYVDGVEVHNAKTKPREEQYNSTYRVVSVLTVLHQDWLNGKEYKCKVSNKALGAPIEKTISKAKGQPREPQVYTLPPSREEMTKNQVSLTCLVKGFYPSDIAVEWESNGQPENNYKTTPPVLDSDGSFFLYSKLTVDKSRWQQGNVFSCSVMHEALHNHYTQKSLSLSPGK
light: DIQMTQSPSSLSASVGDRVTITCRASQDVSTAVAWYQQKPGKAPKLLIYSASFLYSGVPSRFSGSGSGTDFTLTISSLQPEDFATYYCQQSYTTPPTFGQGTKVEIKGGGGSGGGGSGGGGSDIELTQPPSVSVAPGQTARISCSGDNIGSFYVHWYQQKPGQAPVLVIYDKSNRPSGIPERFSGSNSGNTATLTISGTQAEDEADYYCQSYANTLSLVFGGGTKLTVLGQPKAAPSVTLFPPSSEELQANKATLVCLISDFYPGAVTVAWKADSSPVKAGVETTTPSKQSNNKYAASSYLSLTPEQWKSHRSYSCQVTHEGSTVEKTVAPTECS
- human AT2 cell organoid growth (CellTiter Glo), compared with Chir99021 (human AT2 cell organoid [1]; SWAP in combination with RSPO1, C59 present, FIGS. 5A and 5B): enhancement of human AT2 cell organoid growth that surpassed the growth observed upon treatment with the small molecule Wnt signaling activator, Chir99021; also recorded: more effective than the small molecule, CHIR99021
- self-renewal and expansion of human AT2 cells (human AT2 cell organoid [1]): promotes the self-renewal and expansion of human AT2 cells
- expansion of mouse AT2 organoid cultures (CellTiter-Glo) [2]: led to the expansion of mouse AT2 organoid cultures

B2: SWAP2: FZD1,2,7-specific Wnt agonist; anti-FZD antibody with LRP6 binder; heavy/light chains SEQ ID NO: 5 and 6 (antibody)
heavy: EVQLVESGGGLVQPGGSLRLSCAASGFTFTSYYISWVRQAPGKGLEWVAEISPYSGSTYYADSVKGRFTISADTSKNTAYLQMNSLRAEDTAVYYCALRARPPIRLHPRGSVMDYWGQGTLVTVSSGGGGSGGGGSGGGGSEVQLVESGGGLVQPGGSLRLSCAASGFNISSSYIHWVRQAPGKGLEWVAYIYSSYGSTYYADSVKGRFTISADTSKNTAYLQMNSLRAEDTAVYYCARASWYALDYWGQGTLVTVSSASTKGPSVFPLAPSSKSTSGGTAALGCLVKDYFPEPVTVSWNSGALTSGVHTFPAVLQSSGLYSLSSVVTVPSSSLGTQTYICNVNHKPSNTKVDKKVEPKSCDKTHTCPPCPAPEAAGGPSVFLFPPKPKDTLMISRTPEVTCVVVDVSHEDPEVKFNWYVDGVEVHNAKTKPREEQYNSTYRVVSVLTVLHQDWLNGKEYKCKVSNKALGAPIEKTISKAKGQPREPQVYTLPPSREEMTKNQVSLTCLVKGFYPSDIAVEWESNGQPENNYKTTPPVLDSDGSFFLYSKLTVDKSRWQQGNVFSCSVMHEALHNHYTQKSLSLSPGK
light: DIQMTQSPSSLSASVGDRVTITCRASQDVSTAVAWYQQKPGKAPKLLIYSASFLYSGVPSRFSGSGSGTDFTLTISSLQPEDFATYYCQQSYTTPPTFGQGTKVEIKGGGGSGGGGSGGGGSDIQMTQSPSSLSASVGDRVTITCRASQSVSSAVAWYQQKPGKAPKLLIYSASSLYSGVPSRFSGSRSGTDFTLTISSLQPEDFATYYCQQYWYGVAPITFGQGTKVEIKRTVAAPSVFIFPPSDEQLKSGTASVVCLLNNFYPREAKVQWKVDNALQSGNSQESVTEQDSKDSTYSLSSTLTLSKADYEKHKVYACEVTHQGLSSPVTKSFNRGEC
- effectiveness on human AT2 organoid expansion versus Chir99021 (human AT2 cell organoid [1]): more effective than the small molecule Wnt pathway activator, Chir99021
- human AT2 organoid culture outgrowth/viability (CellTiter Glo) (human AT2 cell organoid [1]; C59 present): induced human AT2 organoid culture outgrowth/viability as assessed by the CellTiter Glo assay in a concentration-dependent manner; also recorded: induce human AT2 cell organoid expansion alone (in the absence of RSPO) in a dose-dependent manner
- self-renewal and expansion of human AT2 cells (human AT2 cell organoid [1]): promotes the self-renewal and expansion of human AT2 cells
- human AT2 cell organoid growth as organoid size (diameter) (human AT2 cell organoid [3]): expand AT2 organoids
- numbers of organoids and organoid size by microscopy (human AT2 cell organoid [3]): increased numbers of organoids and organoid size
- expansion of mouse AT2 organoid cultures (CellTiter-Glo) [2]: led to the expansion of mouse AT2 organoid cultures

B3: SWAP3: FZD5,8-specific Wnt agonist (FZD5,8 and LRP6); heavy/light chains SEQ ID NO: 7 and 8 (antibody)
heavy: EVQLVESGGGLVQPGGSLRLSCAASGFTFTSYYISWVRQAPGKGLEWVAEISPYSGSTYYADSVKGRFTISADTSKNTAYLQMNSLRAEDTAVYYCALRARPPIRLHPRGSVMDYWGQGTLVTVSSGGGGSGGGGSGGGGSEVQLVESGGGLVQPGGSLRLSCAASGFNISYSYIHWVRQAPGKGLEWVASIYSSSGSTSYADSVKGRFTISADTSKNTAYLQMNSLRAEDTAVYYCARGAIDYWGQGTLVTVSSASTKGPSVFPLAPSSKSTSGGTAALGCLVKDYFPEPVTVSWNSGALTSGVHTFPAVLQSSGLYSLSSVVTVPSSSLGTQTYICNVNHKPSNTKVDKKVEPKSCDKTHTCPPCPAPEAAGGPSVFLFPPKPKDTLMISRTPEVTCVVVDVSHEDPEVKFNWYVDGVEVHNAKTKPREEQYNSTYRVVSVLTVLHQDWLNGKEYKCKVSNKALGAPIEKTISKAKGQPREPQVYTLPPSREEMTKNQVSLTCLVKGFYPSDIAVEWESNGQPENNYKTTPPVLDSDGSFFLYSKLTVDKSRWQQGNVFSCSVMHEALHNHYTQKSLSLSPGK
light: DIQMTQSPSSLSASVGDRVTITCRASQDVSTAVAWYQQKPGKAPKLLIYSASFLYSGVPSRFSGSGSGTDFTLTISSLQPEDFATYYCQQSYTTPPTFGQGTKVEIKGGGGSGGGGSGGGGSDIQMTQSPSSLSASVGDRVTITCRASQSVSSAVAWYQQKPGKAPKLLIYSASSLYSGVPSRFSGSRSGTDFTLTISSLQPEDFATYYCQQWYSSGHVLITFGQGTKVEIKRTVAAPSVFIFPPSDEQLKSGTASVVCLLNNFYPREAKVQWKVDNALQSGNSQESVTEQDSKDSTYSLSSTLTLSKADYEKHKVYACEVTHQGLSSPVTKSFNRGEC
- effectiveness on human AT2 organoid expansion versus Chir99021 (human AT2 cell organoid [1]): more effective than the small molecule Wnt pathway activator, Chir99021
- human AT2 organoid culture outgrowth/viability (CellTiter Glo) (human AT2 cell organoid [1]; C59 present): induced human AT2 organoid culture outgrowth/viability as assessed by the CellTiter Glo assay in a concentration-dependent manner; also recorded: induce human AT2 cell organoid expansion alone (in the absence of RSPO) in a dose-dependent manner
- self-renewal and expansion of human AT2 cells (human AT2 cell organoid [1]): promotes the self-renewal and expansion of human AT2 cells
- human AT2 cell organoid growth as organoid size (diameter) (human AT2 cell organoid [3]): expand AT2 organoids
- numbers of organoids and organoid size by microscopy (human AT2 cell organoid [3]): increased numbers of organoids and organoid size
- percentage of lung area affected by fibrosis ([4]; dosed four times between week 1 and week 3, vs anti-GFP, FIGS. 10-11): reduced the fibrosis score, the percentage of lung affected, immune cell infiltration, and cytokine levels in the acute bleomycin mouse model in a dose-dependent manner; also recorded: reduce the area of the lung that is fibrotic
- fibrosis score (Modified Ashcroft) ([4]; dosed four times between week 1 and week 3, vs anti-GFP, FIGS. 10-12): reduced the fibrosis score, the percentage of lung affected, immune cell infiltration, and cytokine levels in the acute bleomycin mouse model in a dose-dependent manner; also recorded: lower the severity of fibrosis
- percent of ACTA2 in the lung ([4]; FIG. 11D): reduction of fibrosis
- immune cell infiltration / inflammation (H&E based pathology scores) ([4]; FIG. 11E): reduced the fibrosis score, the percentage of lung affected, immune cell infiltration, and cytokine levels in the acute bleomycin mouse model in a dose-dependent manner; also recorded: reduction in inflammation
- IL6 in lung tissue (Meso Scale Discovery) ([4]; FIG. 11F): reduction in cytokines
- IL1B in lung tissue (Meso Scale Discovery) ([4]; FIG. 11G): reduction in cytokines
- GRO/CXCL1 in lung tissue (Meso Scale Discovery) ([4]; FIG. 11H): reduction in cytokines
- cytokine levels ([4]; lung tissue, FIG. 11): reduced the fibrosis score, the percentage of lung affected, immune cell infiltration, and cytokine levels in the acute bleomycin mouse model in a dose-dependent manner
- expansion of mouse AT2 organoid cultures (CellTiter-Glo) [2]: led to the expansion of mouse AT2 organoid cultures
